Reference: patent US20010046966, “Inhibition of adipogenesis” (published 2001)

B1: specific GATA competitor (dsDNA)
DNA 1: GATCTCCGGCAACTGATAAGGATTCCCTG
DNA 2: CAGGGAATCCTTATCAGTTGCCGGAGATC
B2: non-specific competitor (dsDNA)
DNA 1: GATCGAACTGACCGCCCGCGGCCCGT
DNA 2: ACGGGCCGCGGGCGGTCAGTTCGATC

Legend:
GATA-2 [1] = biological target: T1, GATA-2 (UniProt O09100 O09100:1-480); assay: competition; 1 ug competitor competed complex; conditions: tags: GST fusion (pGEX-2T)
Experimental: (§1) FIG. 5B is a photograph of an electrophoretic gel showing the results of an mobility shift assay. Based on the result of Dnase I footprinting, two double stranded DNA fragment (nucleotide −199 to −85 and nucleotide −22 to +9, respectively) were end-labeled with 32P and electrophoretic mobility shift assays were performed with GST-GATA-2 or GST-GATA-3. For each protein-DNA reaction, specific (S) or non-specific (N) DNA competitors were also included in the experiments.
(§2) After confirming the requirement for GATA DNA-binding activity, experiments were carried out to determine whether this activity requires direct interaction with the PPAR-gamma 2 promoter. The proximal PPAR-gamma 2 promoter region was evaluated by deletion analysis. […] To determine if and at what sites GATA factors directly interact with DNA on this fragment, DNase I footprinting experiments were carried out (FIG. 5A) combined with elecrophoretic mobility shift assays (FIG. 5B) using recombinant GATA-2 and GATA-3 fusion proteins. The electrophoretic mobility shift assays were performed in 20 ul reaction volume. 2 ul GST-GATA fusion protein was incubated with 0.5 ug poly[d(I-C)] and ³²p labeled DNA probe (4×10⁴ cpm) in the presence or absence of 1 ug of specific or non-specific competitors, at room temperature for 20 min. […]

GATA-3 [2] = biological target: T2, GATA-3 (UniProt P23772 P23772:1-443); assay: competition; 1 ug competitor competed complex; conditions: tags: GST fusion
Experimental: as §1, §2

GATA-2 [3] = biological target: T1, GATA-2; assay: competition; 1 ug, no competition; conditions: tags: GST fusion (pGEX-2T)
Experimental: as §1, §2

GATA-3 [4] = biological target: T2, GATA-3; assay: competition; 1 ug, no competition; conditions: tags: GST fusion
Experimental: as §1, §2

T1 sequence (O09100 whole entry, the tested form may be a part, one chain of several): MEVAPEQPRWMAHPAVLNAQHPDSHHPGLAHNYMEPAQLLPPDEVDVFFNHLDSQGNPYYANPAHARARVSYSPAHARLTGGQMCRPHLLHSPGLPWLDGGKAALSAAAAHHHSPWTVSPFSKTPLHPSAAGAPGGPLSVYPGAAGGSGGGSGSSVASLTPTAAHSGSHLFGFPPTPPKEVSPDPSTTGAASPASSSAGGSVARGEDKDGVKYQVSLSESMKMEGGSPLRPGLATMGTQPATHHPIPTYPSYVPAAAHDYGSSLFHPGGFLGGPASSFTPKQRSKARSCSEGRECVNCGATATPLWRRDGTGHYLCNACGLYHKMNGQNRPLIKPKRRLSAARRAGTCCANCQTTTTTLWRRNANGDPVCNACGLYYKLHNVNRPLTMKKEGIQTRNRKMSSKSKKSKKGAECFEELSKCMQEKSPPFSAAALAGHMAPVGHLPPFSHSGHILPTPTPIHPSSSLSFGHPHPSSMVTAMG
T2 sequence (P23772 whole entry, the tested form may be a part, one chain of several): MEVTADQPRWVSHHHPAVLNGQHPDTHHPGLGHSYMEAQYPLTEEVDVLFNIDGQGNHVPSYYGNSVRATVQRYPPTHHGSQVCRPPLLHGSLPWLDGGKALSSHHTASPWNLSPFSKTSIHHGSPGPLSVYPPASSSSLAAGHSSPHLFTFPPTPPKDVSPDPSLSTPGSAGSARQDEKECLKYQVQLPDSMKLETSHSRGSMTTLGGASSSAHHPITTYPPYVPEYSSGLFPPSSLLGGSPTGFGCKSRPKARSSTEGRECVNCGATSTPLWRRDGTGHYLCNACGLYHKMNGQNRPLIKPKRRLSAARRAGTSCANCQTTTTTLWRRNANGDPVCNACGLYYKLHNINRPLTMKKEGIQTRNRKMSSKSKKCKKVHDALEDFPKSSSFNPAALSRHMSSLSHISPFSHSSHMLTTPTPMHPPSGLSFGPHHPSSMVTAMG

Row | Binder | binding result (GATA-2 [1]) | binding result (GATA-3 [2]) | binding result (GATA-2 [3]) | binding result (GATA-3 [4])
1 | B1 | binds | binds | – | –
2 | B2 | – | – | no binding | no binding
